# According to patent US20220017608A1 (Teva, published 2022):
# Where no end group is shown, it is not given here. The star is where a group is joined. Biotin = O=C1N[C@H]2[C@H](CS[C@H]2CCCCC(=O)*)N1
# T1: human α-CGRP (human, C-terminal amide (CONH2); N-biotinylated when captured on the Biacore chip)
# T1 construct: N-biotinylated in the Biacore assays; also called α-Hu; α-human
# T1 peptide: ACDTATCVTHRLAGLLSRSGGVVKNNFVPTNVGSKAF
# T2: human β-CGRP (human, not fully specified; C-terminal amide (CONH2); N-biotinylated when captured on the Biacore chip)
# T2 construct: also called β-human
# T2 peptide: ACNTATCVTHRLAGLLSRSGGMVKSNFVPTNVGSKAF
# T3: rat α-CGRP (rat, not fully specified; C-terminal amide (CONH2); N-biotinylated when captured on the Biacore chip)
# T3 construct: also called α-Rat; α-rat
# T3 peptide: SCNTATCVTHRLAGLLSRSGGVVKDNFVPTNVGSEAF
# T4: rat β-CGRP (rat, not fully specified; C-terminal amide (CONH2); N-biotinylated when captured on the Biacore chip)
# T4 construct: also called β-rat
# T4 peptide: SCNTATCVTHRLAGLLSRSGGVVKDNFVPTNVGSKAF
# T5: amylin (Homo sapiens (Human), UniProt P10997 34-70, not fully specified; Natural amylin has a C-terminal Tyr amide and a Cys2-Cys7 disulfide. The patent passages shown say nothing on this.)
# T5 peptide: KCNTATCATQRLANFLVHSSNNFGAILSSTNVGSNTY
# T6: adrenomedullin (Homo sapiens (Human), UniProt P35318 95-146, Natural adrenomedullin has a C-terminal Tyr amide and a Cys16-Cys21 disulfide. The patent passages shown say nothing on this.)
# T6 sequence (peptide): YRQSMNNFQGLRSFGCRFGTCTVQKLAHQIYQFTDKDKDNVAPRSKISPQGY
# T7: calcitonin (Homo sapiens (Human), UniProt P01258 85-116, not fully specified; Natural calcitonin has a C-terminal Pro amide and a Cys1-Cys7 disulfide. The patent passages shown say nothing on this.)
# T7 peptide: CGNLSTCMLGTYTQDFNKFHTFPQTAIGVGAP
# T8: V28A (ends and bridges not checked)
# T8 construct: also called HuαCGRP fragment 25-37 V28A
# T8 peptide: Biotin-NNFAPTNVGSKAF
# T9: K35A (ends and bridges not checked)
# T9 construct: also called HuαCGRP fragment 25-37 K35A
# T9 peptide: Biotin-NNFVPTNVGSAAF
# T10: F27A (ends and bridges not checked)
# T10 construct: also called HuαCGRP fragment 25-37 F27A
# T10 peptide: Biotin-NNAVPTNVGSKAF
# T11: N31A (ends and bridges not checked)
# T11 construct: also called HuαCGRP fragment 25-37 N31A
# T11 peptide: Biotin-NNFVPTAVGSKAF
# T12: P29A (ends and bridges not checked)
# T12 construct: also called HuαCGRP fragment 25-37 P29A
# T12 peptide: Biotin-NNFVATNVGSKAF
# T13: T30A (ends and bridges not checked)
# T13 construct: also called HuαCGRP fragment 25-37 T30A
# T13 peptide: Biotin-NNFVPANVGSKAF
# T14: V32A (ends and bridges not checked)
# T14 construct: also called HuαCGRP fragment 25-37 V32A
# T14 peptide: Biotin-NNFVPTNAGSKAF
# What was measured:
# human α-CGRP [1] = target: T1, human α-CGRP; assay: Biacore, N-biotin-CGRP on chip, 37 C
# human β-CGRP = target: T2, human β-CGRP; assay: Biacore, N-biotin-CGRP on chip, 37 C
# rat α-CGRP [2] = target: T3, rat α-CGRP; assay: Biacore, N-biotin-CGRP on chip, 37 C
# rat β-CGRP [3] = target: T4, rat β-CGRP; assay: Biacore, N-biotin-CGRP on chip, 37 C
# human α-CGRP [4] = target: T1, human α-CGRP; assay: competition binding assay on SK-N-MC cells: antibody blocks binding of human α-CGRP to the CGRP1 receptor; value in IgG molecules
# cynomolgus monkey α-CGRP = target: T15, cynomolgus monkey α-CGRP (cynomolgus monkey); assay: Biacore
# T15 construct: also called cyno CGRP
# human α-CGRP [5] = target: T1, human α-CGRP; assay: Biacore, N-biotin-CGRP on chip, 25 C
# rat α-CGRP [6] = target: T3, rat α-CGRP; assay: Biacore, N-biotin-CGRP on chip, 25 C
# human α-CGRP [7] = target: T1, human α-CGRP; assay: blocking of human α-CGRP binding to the CGRP1-receptor in SK-N-MC cells; IC50 converted to binding sites
# rat β-CGRP [8] = target: T4, rat β-CGRP; assay: Biacore (legend of Table 1)
# human α-CGRP [9] = target: T1, human α-CGRP; assay: Biacore, N-biotinylated CGRP captured on chip, 25 C
# rat α-CGRP [10] = target: T3, rat α-CGRP; assay: as above
# human α-CGRP [11] = target: T1, human α-CGRP; assay: competition binding assay on SK-N-MC cells: antibody blocks binding of human α-CGRP to the CGRP1 receptor; value in binding sites
# amylin = target: T5, amylin; assay: Biacore solution competition, chip probes free G1
# adrenomedullin = target: T6, adrenomedullin; assay: Biacore solution competition, chip probes free G1
# calcitonin = target: T7, calcitonin; assay: Biacore solution competition, chip probes free G1
# human α-CGRP [12] = target: T1, human α-CGRP; assay: Biacore, ratio of KD against rat α-CGRP
# human α-CGRP [13] = target: T1, human α-CGRP; assay: competition binding assay on SK-N-MC cells: antibody blocks binding of human α-CGRP to the CGRP1 receptor
# V28A = target: T8, V28A; assay: Biacore 3000, 25 °C, alanine scan: N-biotinylated peptide on SA chip, G1 Fab titrated; fold loss versus wild-type 25-37 fragment
# Experimental: (§1) Interaction analysis was conducted at 25° C. on a Biacore 3000™ system equipped with streptavidin-coated (SA) sensor chips (Biacore AB, Uppsala, Sweden) using a standard Biacore running buffer (HBS-P). […] Each amino acid between position 27-37 was then mutated individually to alanine and expressed the fold loss in affinity compared to the wild-type fragment. […] Fab fragments were titrated over the chip using 1 μM as the top concentration of a two-fold dilution series. Association and dissociation phases were monitored at 100 μl/min for 1 minute and 5 minutes respectively. Surfaces were regenerated with a mixture of 35% ethanol+25 mM NaOH+0.5M NaCl.
# K35A = target: T9, K35A; assay: as above
# Experimental: as §1
# F27A = target: T10, F27A; assay: as above
# Experimental: as §1
# N31A = target: T11, N31A; assay: as above
# Experimental: as §1
# P29A = target: T12, P29A; assay: as above
# Experimental: as §1
# T30A = target: T13, T30A; assay: as above
# Experimental: as §1
# V32A = target: T14, V32A; assay: as above
# Experimental: as §1
# rat β-CGRP [14] = target: T4, rat β-CGRP; assay: Biacore (legend of Table 1), rat β-CGRP
binder,measurement,setting,value
"antibody G1 (antibody, human IgG2, kappa, V domains shown, Humanized IgG2 delta-a antibody derived from muMAb7E9; also called anti-CGRP antibody G1) VH: EVQLVESGGGLVQPGGSLRLSCAASGFTFSNYWISWVRQAPGKGLEWVAEIRSESDASATHYAEAVKGRFTISRDNAKNSLYLQMNSLRAEDTAVYYCLAYFDYGLAIQNYWGQGTLVTVSS VL: EIVLTQSPATLSLSPGERATLSCKASKRVTTYVSWYQQKPGQAPRLLIYGASNRYLGIPARFSGSGSGTDFTLTISSLEPEDFAVYYCSQSYNYPYTFGQGTKLEIKR",Kd,human α-CGRP [1],0.063 nM
same,T1/2,human α-CGRP [1],5.3 h
same,koff,human α-CGRP [1],3.63e-05 s⁻¹
same,kon,human α-CGRP [1],587000 M⁻¹ s⁻¹
same,Kd,human β-CGRP,0.155 nM
same,T1/2,human β-CGRP,2.76 h
same,koff,human β-CGRP,6.98e-05 s⁻¹
same,kon,human β-CGRP,451000 M⁻¹ s⁻¹
same,Kd,rat α-CGRP [2],2.57 nM
same,T1/2,rat α-CGRP [2],0.48 h
same,koff,rat α-CGRP [2],0.000399 s⁻¹
same,kon,rat α-CGRP [2],155000 M⁻¹ s⁻¹
same,Kd,rat β-CGRP [3],0.152 nM
same,T1/2,rat β-CGRP [3],2.45 h
same,koff,rat β-CGRP [3],7.85e-05 s⁻¹
same,kon,rat β-CGRP [3],516000 M⁻¹ s⁻¹
same,Ki,human α-CGRP [4],0.37 nM
same,Kd,cynomolgus monkey α-CGRP,0.063 nM
same,Kd,human α-CGRP [5],0.042 nM
same,T1/2,human α-CGRP [5],24.7 h
same,koff,human α-CGRP [5],7.8e-06 s⁻¹
same,kon,human α-CGRP [5],186000 M⁻¹ s⁻¹
same,Kd,rat α-CGRP [6],1.22 nM
same,T1/2,rat α-CGRP [6],3.12 h
same,koff,rat α-CGRP [6],6.18e-05 s⁻¹
same,kon,rat α-CGRP [6],50800 M⁻¹ s⁻¹
same,IC50,human α-CGRP [7],1.2 nM
same,Kd,rat β-CGRP [8],0.1 nM
same,Kd,human α-CGRP [9],0.04 nM
same,Kd,rat α-CGRP [10],1.2 nM
same,IC50,human α-CGRP [11],1.8 nM
same,Ki,human α-CGRP [11],0.74 nM
same,binding result,amylin,no binding (tested: an excess)
same,binding result,adrenomedullin,no binding (tested: an excess)
same,binding result,calcitonin,no binding (tested: an excess)
same,fold more potent affinity than for rat α-CGRP,human α-CGRP [12],40 fold
same,IC50 (read off the curve),human α-CGRP [13],~0.1 µg/mL
"Fab fragments of antibody G1 (Fab, V domains shown, 'Purified Fab fragments of antibody G1 were generated'; also called G1 Fab) VH: EVQLVESGGGLVQPGGSLRLSCAASGFTFSNYWISWVRQAPGKGLEWVAEIRSESDASATHYAEAVKGRFTISRDNAKNSLYLQMNSLRAEDTAVYYCLAYFDYGLAIQNYWGQGTLVTVSS VL: EIVLTQSPATLSLSPGERATLSCKASKRVTTYVSWYQQKPGQAPRLLIYGASNRYLGIPARFSGSGSGTDFTLTISSLEPEDFAVYYCSQSYNYPYTFGQGTKLEIK",Fold loss in affinity,V28A,1 fold
same,Fold loss in affinity,K35A,8.1 fold
same,Fold loss in affinity,F27A,1.4 fold
same,Fold loss in affinity,N31A,1.9 fold
same,Fold loss in affinity,P29A,2.8 fold
same,Fold loss in affinity,T30A,1.7 fold
same,Fold loss in affinity,V32A,6.1 fold
"antibody G2 (antibody, V domains shown, Anti-rat CGRP mouse monoclonal antibody (Wong et al. 1993); also called RN4901) VH: EVQLQQSGPELVKPGASVKMSCKASGYTFTSSVMHWVKQKPGQGLEWIGYINPYNDGTKYNEKFKGKATLTSDKSSSTAYMELSSLTSEDSAVYYCAKGGNDGYWGQGTTLTVSS VL: EIVLTQSPTTMAASPGEKITITCSASSSISSIYLHWYQQKPGFSPKVLIYRASNLASGVPARFSGSGSGTSYSLTIGTMEAEDVATYYCQQGSTIPFTFGSGTKLEIKR",IC50,human α-CGRP [7],37 nM
same,Kd,human α-CGRP [9],17 nM
same,Kd,rat α-CGRP [10],1 nM
same,Kd,rat β-CGRP [14],17 nM
